The results in this text go back to article PMC4359974.

The experiment addresses Sulfolobus solfataricus heat shock 20.1 (Sulfolobus solfataricus P2). Nature of the experiment: SEC.

For “Sulfolobus solfataricus heat shock 20.1 (natural protein)”, the stoichiometry N turned out to be 24 subunits.
